We go through two proteins from PMC4865371, “ESCRT-III activation by parallel action of ESCRT-I/II and ESCRT-0/Bro1 during MVB biogenesis” (eLife, 2016).

This data set concerns the molecule itself. The data set can be described thus: negative stain transmission electron microscopy; purified recombinant Snf7 protein alone; protofilament assembly looked for.

B1: Snf7^1-225 (α6 truncated Snf7) (domain or fragment, Saccharomyces cerevisiae, UniProt P39929 1-225, looked up)
chain: MWSSLFGWTSSNAKNKESPTKAIVRLREHINLLSKKQSHLRTQITNQENEARIFLTKGNKVMAKNALKKKKTIEQLLSKVEGTMESMEQQLFSIESANLNLETMRAMQEGAKAMKTIHSGLDIDKVDETMDEIREQVELGDEISDAISRPLITGANEVDEDELDEELDMLAQENANQETSKIVNNNVNAAPISENKVSLPSVPSNKIKQSENSVKDGEEEEDEED
notes: Snf7/Vps32, Saccharomyces cerevisiae, residues 1-225, lacks the C-terminal α6 helix; source: recombinant, purified as described (Buchkovich et al., 2013; Henne et al., 2012; Tang et al., 2015)
As for B1, the binding result was “binds”.

B2: Snf7^Q90L (natural protein, Saccharomyces cerevisiae, UniProt P39929 1-240, looked up)
chain: MWSSLFGWTSSNAKNKESPTKAIVRLREHINLLSKKQSHLRTQITNQENEARIFLTKGNKVMAKNALKKKKTIEQLLSKVEGTMESMEQLLFSIESANLNLETMRAMQEGAKAMKTIHSGLDIDKVDETMDEIREQVELGDEISDAISRPLITGANEVDEDELDEELDMLAQENANQETSKIVNNNVNAAPISENKVSLPSVPSNKIKQSENSVKDGEEEEDEEDEDEKALRELQAEMGL
notes: Snf7/Vps32, Saccharomyces cerevisiae, with the point mutation Q90L found in the vps20Δ suppressor screen; source: recombinant, purified as described (Buchkovich et al., 2013; Henne et al., 2012; Tang et al., 2015)
Regarding B2, the binding result is listed as “binds”.
